Source: patent US20210340201A1 (published 2021)

T1: KRAS G12V peptide on HLA-DRB1*11:01 (human)
T1 peptide: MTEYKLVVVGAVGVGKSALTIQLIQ

T2: KRAS G12V peptide on HLA-DRB1*11:04 (human)
T2 peptide: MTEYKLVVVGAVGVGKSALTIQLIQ

B1: KRAS G12V clone 9 TCR (TCR, V domains shown)
Valpha: SVSQHNHHVILSEAASLELGCNYSYGGTVNLFWYVQYPGQHLQLLLKYFSGDPLVKGIKGFEAEFIKSKFSFNLRKPSVQWSDTAEYFCAVTVVNAGNNRKLIWGLGTSLAVNP
Vbeta: AGVIQSPRHEVTEMGQEVTLRCKPISGHDYLFWYRQTMMRGLELLIYFNNNVPIDDSGMPEDRFSAKMPNASFSTLKIQPSEPRDSAVYFCASSLGLPGTDTQYFGPGTRLTVL
B2: KRAS G12V clone 3 TCR (TCR, V domains shown)
Valpha: AQSVTQPDIHITVSEGASLELRCNYSYGATPYLFWYVQSPGQGLQLLLKYFSGDTLVQGIKGFEAEFKRSQSSFNLRKPSVHWSDAAEYFCAVGRSNSGGYQKVTFGIGTKLQVIP
Vbeta: IHQWPATLVQPVGSPLSLECTVEGTSNPNLYWYRQAAGRGLQLLFYSVGIGQISSEVPQNLSASRPQDRQFILSSKKLLLSDSGFYLCAWSALAGARDTQYFGPGTRLTVL

Assays:
[1] = target: T1, KRAS G12V peptide on HLA-DRB1*11:01; assay: cytokine release
Method: (§1) ELISA assays were performed by incubating 50,000 T cells in 96 well round bottom plates with 100,000 autologous B cells or B-LCL lines pulsed with specific concentrations of peptides in RPMI (GIBCO™) supplemented with 5% heat inactivated fetal bovine serum. IFN-γ in supernatants was diluted 1:1, 1:10, and 1:100 and quantitated using human IFN-γ ELISA kit (EBIOSCIENCE™) in technical duplicate or triplicate. HLA blocking experiments were carried out by adding 20 μg/ml antibody anti class I (BIOLEGEND®, cat. 311411) anti HLA DR (BIOLEGEND® clone L243, cat. 307611) or HLA-DQ (ABCAM™, clone spv-I3, cat. ab23632) to the antigen presenting cells one hour prior to adding peptide. ELISpot assays were performed by incubating 20,000-100,000 T cells with 200,000 autologous B cells pulsed with 20 μg/ml of each peptide in CTL medium using the human IFN-γ ELISPOT-PRO™ kit (MABTECH™) according to the manufacturer's instructions. For intracellular IFN-γ staining, PBMC (100,000) were incubated with autologous B cells (100,000) pulsed with the indicated peptides (20 μg/ml) in the presence of brefeldin A (GOLGIPLUG™, BD BIOSCIENCES™) and then fixed and permeabilized using the BD™ intracellular staining kit (BD BIOSCIENCES™) and analyzed using a FACSCANTO™ II flow cytometer.

[2] = target: T2, KRAS G12V peptide on HLA-DRB1*11:04; assay: cytokine release
Method: as §1

Binder	binding result [1]	binding result [2]
B1	recognises	recognises
B2	recognises	recognises
